Earlier results, collected in patent US20160114005A1, “HYBRID PROTEIN THAT CONVERTS ARACHIDONIC ACID INTO PROSTACYCLIN” (UNIVERSITY OF HOUSTON SYSTEM, priority 2006, published 2016).
“And” between values parts separate entries of the source, which are not always exact repeats. Equal values may be shown once. Read-outs that look alike come from different tables or passages of the source.

B1: PGIS: Individual prostacyclin synthase enzyme (protein, UniProt Q16647 1-500, looked up)
Prostacyclin synthase: MAWAALLGLLAALLLLLLLSRRRTRRPGEPPLDLGSIPWLGYALDFGKDAASFLTRMKEKHGDIFTILVGGRYVTVLLDPHSYDAVVWEPRTRLDFHAYAIFLMERIFDVQLPHYSPSDEKARMKLTLLHRELQALTEAMYTNLHAVLLGDATEAGSGWHEMGLLDFSYSFLLRAGYLTLYGIEALPRTHESQAQDRVHSADVFHTFRQLDRLLPKLARGSLSVGDKDHMCSVKSRLWKLLSPARLARRAHRSKWLESYLLHLEEMGVSEEMQARALVLQLWATQGNMGPAAFWLLLFLLKNPEALAAVRGELESILWQAEQPVSQTTTLPQKVLDSTPVLDSVLSESLRLTAAPFITREVVVDLAMPMADGREFNLRRGDRLLLFPFLSPQRDPEIYTDPEVFKYNRFLNPDGSEKKDFYKDGKRLKNYNMPWGAGHNHCLGRSYAVNSIKQFVFLVLVHLDLELINADVEIPEFDLSRYGFGLMQPEHDVPVRYRIRP

| Molecule | Km (individual COX2, previously characterized by several groups) | Km (individual PGIS, previously characterized by several groups) |
| --- | --- | --- |
| COX2: Individual cyclooxygenase isoform-2 enzyme [reference compound] | 6.5 µM and 0.9 µM | – |
| B1 | – | 13.3 µM and 30 µM and 9.5 µM |
